The supplement of paper PMC11908140

B1: library; numbered along this chain (parent)
chain: MRKPRAAVGSGHRKQAASQEGRQKHAKNNSQAKPSACDGLARQPEEVVLQASVSSYHLFRDVAEVTAFRGSLLSWYDQEKRDLPWRRRAEDEMDLDRRAYAVWVSEVMLQQTQVATVINYYTGWMQKWPTLQDLASASLEEVNQLWAGLGYYSRGRRLQEGARKVVEELGGHMPRTAETLQQLLPGVGRYTAGAIASIAFGQATGVVDGNVARVLCRVRAIGADPSSTLVSQQLWGLAQQLVDPARPGDFNQAAMELGATVCTPQRPLCSQCPVESLCRARQRVEQEQLLASGSLSGSPDVEECAPNTGQCHLCLPPSEPWDQTLGVVNFPRKASRKPPREESSATCVLEQPGALGAQILLVQRPNSGLLAGLWEFPSVTWEPSEQLQRKALLQELQRWAGPLPATHLRHLGEVVHTFSHIKLTYQVYGLALEGQTPVTTVPPGARWLTQEEFHTAAVSTAMKKVFRVYQGQQPGTCMGSKRSQVSSPCSRKKPRMGQQVLDNFFRSHISTDAHSLNSAAQ

Variants of: B1
Assay: 8OG:A repair function score (normalized; synonymous = 0, nonsense = -1) (normalized log-likelihood score); higher = more repair activity (WT-like)
Details: with 8OG:A DNA repair reporter (GFP) in HEK-293 MUTYH KO cells
How it was run: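 Lentiviral MUTYH cDNA NNN codon-scan libraries in HEK-293 MUTYH knockout cells (10 pg/ml doxycycline) were co-transfected with an 8OG:A GFP repair reporter plus mCherry. At 72 h, viable mCherry+ cells were sorted into GFP+ (repair) and GFP− bins, three replicates per tile, then tile amplicons were sequenced. Per-tile Rosace fitness scores became a normalized repair function score anchored on synonymous and nonsense distributions. Synonymous medians were set to 0 and nonsense to -1; variants under 300 counts per million at the start were removed.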

Variant	8OG:A repair function score
MRKPRAAVGSGHRKQAASQEGRQKHAKNNSQAKPSACDGLARQPEEVVLQASVSSYHLFRDVAEVTAFRGSLLSWYDQEKRDLPWRRRAEDEMDLDRRAYAVWVSEVMLQQTQVATVINYYTGWMQKWPTLQDLASASLEEVNQLWAGLGYYSRGRRLQEGARKVVEELGGHMPRTAETLQQLLPGVGRYTAGAIASIAFGQATGVVDGNVARVLCRVRAIGADPSSTLVSQQLWGLAQQLVMPARPGDFNQAAMELGATVCTPQRPLCSQCPVESLCRARQRVEQEQLLASGSLSGSPDVEECAPNTGQCHLCLPPSEPWDQTLGVVNFPRKASRKPPREESSATCVLEQPGALGAQILLVQRPNSGLLAGLWEFPSVTWEPSEQLQRKALLQELQRWAGPLPATHLRHLGEVVHTFSHIKLTYQVYGLALEGQTPVTTVPPGARWLTQEEFHTAAVSTAMKKVFRVYQGQQPGTCMGSKRSQVSSPCSRKKPRMGQQVLDNFFRSHISTDAHSLNSAAQ [D243M]	-0.753
MRKPRAAVGSGHRKQAASQEGRQKHAKNNSQAKPSACDGLARQPEEVVLQASVSSYHLFRDVAEVTAFRGSLLSWYDQEKRDLPWRRRAEDEMDLDRRAYAVWVSEVMLQQTQVATVINYYTGWMQKWPTLQDLASASLEEVNQLWAGLGYYSRGRRLQEGARKVVEELGGHMPRTAETLQQLLPGVGRYTAGAIASIAFGQATGVVDGNVARVLCRVRAIGADPSSTLVSQQLWGLAQQLVDPARPGDFNQAAMELGATVCTPQRPLCSQCPVESLCRARQRVEQEQLLASGSLSGSPDVEECAPNTGDCHLCLPPSEPWDQTLGVVNFPRKASRKPPREESSATCVLEQPGALGAQILLVQRPNSGLLAGLWEFPSVTWEPSEQLQRKALLQELQRWAGPLPATHLRHLGEVVHTFSHIKLTYQVYGLALEGQTPVTTVPPGARWLTQEEFHTAAVSTAMKKVFRVYQGQQPGTCMGSKRSQVSSPCSRKKPRMGQQVLDNFFRSHISTDAHSLNSAAQ [Q310D]	0.0119
MRKPRAAVGSGHRKQAASQEGRQKHAKNNSQAKPSACDGLARQPEEVVLQASVSSYHLFRDVAEVTAFRGSLLSWYDQEKRDLPWRRRAEDEMDLDRRAYAVWVSEVMLQQTQVATVINYYTGWMQKWPTLQDLASASLEEVNQLWAGLGYYSRGRRLQEGARKVVEELGGHMPRTAETLQQLLPGVGRYTAGAIASIAFGQATGVVDGNVARVLCRVRAIGADPSSTLVSQQLWGLAQQLVDPARPGDFNQAAMELGATVCTPQRPLCSQCPVESLCRARQRVEQEQLLASGSLSGSPDVEECAPNTGQCHLCLPPSEPWDQTLGVVNFPRKASRKPPREESSATCVLEQPGALGAQILLVQRPNSGLLAGLWEFPSVTWEPSEQLQRKALLQELQRWAGPLPRTHLRHLGEVVHTFSHIKLTYQVYGLALEGQTPVTTVPPGARWLTQEEFHTAAVSTAMKKVFRVYQGQQPGTCMGSKRSQVSSPCSRKKPRMGQQVLDNFFRSHISTDAHSLNSAAQ [A405R]	0.00307
MRKPRAAVGSGHRKQAASQEGRQKHAKNNSQAKPSACDGLARQPEEVVLQASVSSYHLFRDVAEVTAFRGSLLSWYDQEKRDLPWRRRAEDEMDLDRRAYAVWVSEVMLQQTQVATVINYYTGWMQKWPTLQDLASASLEEVNQLWAGLGYYSRGRRLQEGARKVVEELGGHMPRTAETLQQLLPGVGRYTAGAIASIAFGQATGVVDGNVARVLCRVRAIGADHSSTLVSQQLWGLAQQLVDPARPGDFNQAAMELGATVCTPQRPLCSQCPVESLCRARQRVEQEQLLASGSLSGSPDVEECAPNTGQCHLCLPPSEPWDQTLGVVNFPRKASRKPPREESSATCVLEQPGALGAQILLVQRPNSGLLAGLWEFPSVTWEPSEQLQRKALLQELQRWAGPLPATHLRHLGEVVHTFSHIKLTYQVYGLALEGQTPVTTVPPGARWLTQEEFHTAAVSTAMKKVFRVYQGQQPGTCMGSKRSQVSSPCSRKKPRMGQQVLDNFFRSHISTDAHSLNSAAQ [P225H]	-0.374
MRKPRAAVGSGHRKQAASQEGRQKHAKNNSQAKPSACDGLARQPEEVVLQASVSSYHLFRDVAEVTAFRGSLLSWYDQEKRDLPWRRRAEDEMDLDRRAYAVWVSEVMLQQTQVATVINYYTGWMQKWPTLQDLASASLEEVNQLWAGLGYYSRGRRLQEGARKVVEELGGHMPRTAETLQQLLPGVGRYTAGAIASIAFGQATGVVDGNVARVLCRVRAIGADPSSTLVSQQLWGLAQQLVDPARPGDFNQAAMELGATVCTPQRPLCSQCPVESLCRARQRVEQEQLLASGSLSGSPDVEECAPNTGQCHLCLPPSEPWDQTLGVVNFPRKASRKPPREESSATCVLEQPGALGAQILLVQRPNSGLLAGLWEFPSVTWEPSEQLQRKALLQELQRWAGPLPACHLRHLGEVVHTFSHIKLTYQVYGLALEGQTPVTTVPPGARWLTQEEFHTAAVSTAMKKVFRVYQGQQPGTCMGSKRSQVSSPCSRKKPRMGQQVLDNFFRSHISTDAHSLNSAAQ [T406C]	0.13
MRKPRAAVGSGHRKQAASQEGRQKHAKNNSQAKPSACDGLARQPEEVVLQASVSSYHLFRDVAEVTAFRGSLLSWYDQEKRDLPWRRRAEDEMDLDRRAYAVWVSEVMLQQTQVATVINYYTGWMQKWPTLQDLASASLEEVNQLWAGLGYYSRGRRLQEGARKVVEELGGHMPRTAETLQQLLPGVGRYTAGAIASIAFGQATGVVDGNVARVLCRVRAIGADPSSTLVSQQLWGLAQQLVDPARPGDFNQAAMELGATVCTPQRPLCSQCPVESLCRARQRVEQEQLLASGSLSGSPDVEECAPNTGQCHLCLPPSEPWDQTLGVVNFPRKASRKPPREESSATCVLEQPGALGAQILLVQRPNSGLLAGLWEFPSVTWEPSEQLQRKALLQELQRWAGPLPATHLRHLGEVVHTFSHIKLTYQVYGLALEGQTPVTTVPPGARWLTQEEFHTAAVSTAMKKVFRVYQGQQPGTCMGSKRSIVSSPCSRKKPRMGQQVLDNFFRSHISTDAHSLNSAAQ [Q484I]	-0.0366
MRKPRAAVGSGHRKQAASQEGRQKHAKNNSQAKPSACDGLARQPEEVVLQASVSSYHLFRDVAEVTAFRGSLLSWYDQEKRDLPWRRRAEDEMDLDRRAYAVWVSEVMLQQTQVATVINYYTGWMQKWPTLQDLASASLEEVNQLWAGLGYYSRGRRLQEGARKVVEELGGHMPRTAETLQQLLPGVGRYTAGAIASIAFGQATGVVDGNVARVLCRVRAIGADPSSTLVSQQLWGLAQQLVDPARPGDFNQAAMELGATVCTPQRPLCSQCPVESLCRARQRVEQEQLLASGSLSGSPDVEECAPNTGQCHLCLPPSEPWDQTLGVVNFPRKASRKPPREESSATCVLEQPGALGAQILLVQRPNSGLLAGLWEFPSVTWEPSEQLQRKALLQELQRWAGPLPATHLRHLGEVVHTFSHIKLTYQVYGLALEGQTPVTTVPPGARWLTQEEFHTAAVSTAMKKVFRVYQGQQPGTCMGSKRSQVSSPCSRKKPRMGQQCLDNFFRSHISTDAHSLNSAAQ [V500C]	-0.0118
MRKPRAAVGSGHRKQAASQEGRQKHAKNNSQAKPSACDGLARQPEEVVLQASVSSYHLFRDVAEVTAFRGSLLSWYDQEKRDLPWRRRAEDEMDLDRRAYAVWVSEVMLQQTQVATVINYYTGWMQKWPTLQDLASASLEEVNQLWAGLGYYSRGRRLQEGARKVVEELGGHMPRTAETLQQVLPGVGRYTAGAIASIAFGQATGVVDGNVARVLCRVRAIGADPSSTLVSQQLWGLAQQLVDPARPGDFNQAAMELGATVCTPQRPLCSQCPVESLCRARQRVEQEQLLASGSLSGSPDVEECAPNTGQCHLCLPPSEPWDQTLGVVNFPRKASRKPPREESSATCVLEQPGALGAQILLVQRPNSGLLAGLWEFPSVTWEPSEQLQRKALLQELQRWAGPLPATHLRHLGEVVHTFSHIKLTYQVYGLALEGQTPVTTVPPGARWLTQEEFHTAAVSTAMKKVFRVYQGQQPGTCMGSKRSQVSSPCSRKKPRMGQQVLDNFFRSHISTDAHSLNSAAQ [L183V]	0.0213
MRKPRAAVGSGHRKQAASQEGRQKHAKNNSQAKPSACDGLARQPEEVVLQASVSSYHLFRDVAEVTAFRGSLLSWYDQEKRDLPWRRRAEDEMDLDRRAYAVWVSEVMLQQTQVATVINYYTGWMQKWPTLQDLASASLEEVNQLWAGLGYYSRGRRLQEGARKVVEELGGHMPRTAETLQQLLPGVGRYTAGAIASIAFGQATGVVDGNVARVLCRVRAIGADPSSTLVSQQLWGLAQQLVDPARPGDFNQAAMELGATVCTPQRPLCSQCPVESLCRARQRVEQEQLLASGSLSGSPDVEECAPNTGQCHLCLPPSEPWDQTLGVVNQPRKASRKPPREESSATCVLEQPGALGAQILLVQRPNSGLLAGLWEFPSVTWEPSEQLQRKALLQELQRWAGPLPATHLRHLGEVVHTFSHIKLTYQVYGLALEGQTPVTTVPPGARWLTQEEFHTAAVSTAMKKVFRVYQGQQPGTCMGSKRSQVSSPCSRKKPRMGQQVLDNFFRSHISTDAHSLNSAAQ [F330Q]	-0.638
MRKPRAAVGSGHRKQAASQEGRQKHAKNNSQAKPSACDGLARQPEEVVLQASVSSYHLFRDVAEVTAFRGSLLSWYDQEKRDLPWRRRAEDEMDLDRRAYAVWVSEVMLQQTQVATVINYYTGWMQKWPTLQDLASASLEEVNQLWAGLGYYSRGRRLQEGARKVVEELGGHMPRTAETLQQLLPGVGRYTAGAIASIAFGQATGVVDGNVARVLCRVRAIGADPSSTLVSQQLWGLAQQLVDPARPGDFNQAAMELGATVCTPQRPLCSQCPVESLCRARQRVEQEQLLASGSLSGSPDVEECAPNTGQCHLCLPPSEPWDQTLGVVNFPRKASRKPPREESSATCVLEQPGALGAQILLVQRPNSGLLAGLWEFPSVTWEPSEQLQRKALLQELQRWAGPLPATHLRHLGEVVHTRSHIKLTYQVYGLALEGQTPVTTVPPGARWLTQEEFHTAAVSTAMKKVFRVYQGQQPGTCMGSKRSQVSSPCSRKKPRMGQQVLDNFFRSHISTDAHSLNSAAQ [F418R]	-0.722
MRKPRAAVGSGHRKQAASQEGRQKHAKNNSQAKPSACDGLARQPEEVVLQASVSSYHLFRDVAEVTAFRGSLLSWYDQEKRDLPWRRRAEDEMDLDRRAYAVWVSEVMLQQTQVATVINYYTGWMQKWPTLQDLASASLEEVNQLWAGLGYYSRGRRLQEGARKVVEELGGHMPRTAETLQQLLPGVGRYTAGAIASIAFGQATGVVDGNVARVLCRVRAIGADPSSTLVSQQLWGLAQQLVDPARPGDFNQAAMELGATVCTPQRPLCSQCPVESLCRARQRVEQEQLLASGSLSGSPDVEECAPNTGQCHLCLPPSEPWDQTLGVVNFPRKASRKPPREESSATCVLEQPGALGAQILLVQRPNSGLLAGLWEFPSVTWEPNEQLQRKALLQELQRWAGPLPATHLRHLGEVVHTFSHIKLTYQVYGLALEGQTPVTTVPPGARWLTQEEFHTAAVSTAMKKVFRVYQGQQPGTCMGSKRSQVSSPCSRKKPRMGQQVLDNFFRSHISTDAHSLNSAAQ [S384N]	-0.0929
MRKPRAAVGSGHRKQAASQEGRQKHAKNNSQAKPSACDGLARQPEEVVLQASVSSYHLFRDVAEVTAFRGSLLSWYDQEKRDLPWRRRAEDEMDLDRRAYAVWVSEVMLQQTQVATVINYYTGWMQKWPTLQDLASASLEEVNQLWAGLGYYSRGRRLQEGARKVVEELGGHMPRTAETLQQLLPGVGRYTAGAIASIAFGQATGVVDGNVARVLCRVRAIGADPSSTLVSQQLWGLAQQLIDPARPGDFNQAAMELGATVCTPQRPLCSQCPVESLCRARQRVEQEQLLASGSLSGSPDVEECAPNTGQCHLCLPPSEPWDQTLGVVNFPRKASRKPPREESSATCVLEQPGALGAQILLVQRPNSGLLAGLWEFPSVTWEPSEQLQRKALLQELQRWAGPLPATHLRHLGEVVHTFSHIKLTYQVYGLALEGQTPVTTVPPGARWLTQEEFHTAAVSTAMKKVFRVYQGQQPGTCMGSKRSQVSSPCSRKKPRMGQQVLDNFFRSHISTDAHSLNSAAQ [V242I]	0.0144
